Experimental data from the supplement of paper PMC9170038.

Test system: MS2 coat protein
Test: apparent KD of MS2 coat protein; designed switch direction (-1 OFF switch, 1 ON switch): 1; higher = weaker reporter binding
In short: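 Stalled E. coli RNA polymerase transcribed designed RNA switches on Illumina chips, which were then titrated with SNAP-549-labelled MS2 coat protein, doubling from 0.7 or 1.5 nM to 3 µM. Steps lasted from 0.8–1.5 h at the lowest concentration to 10–20 min at the highest. The apparent KD is each design's median over clusters of curve-fitted normalised fluorescence.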

[1] = input ligand: microRNA oligo, concentration not stated
[2] = Eterna round: R95, input ligand: FMN 200 uM
[3] = Eterna round: R95, input ligand: microRNA oligo, concentration not stated
[4] = Eterna round: R95, input ligand: none

| Sequence | apparent KD of MS2 coat protein (input ligand: FMN 200 uM) | apparent KD of MS2 coat protein [1] | apparent KD of MS2 coat protein (input ligand: none) | apparent KD of MS2 coat protein [2] | apparent KD of MS2 coat protein [3] | apparent KD of MS2 coat protein [4] |
| --- | --- | --- | --- | --- | --- | --- |
| GGAGCCGGCCUAGGAUAUUUCAUAAAAUUACAUGAGGAUCACCCAUGUAGGCCAGAAGGCCUUGGGAAGAAGGAGGUCGGCUCC [Loop Effect - U28,U29] (Eterna round: R96, puzzle: Same State NG 2) | 12.9 nM | 17.5 nM | 28.2 nM |  |  |  |
| CGUAGGUAGCUGGAGGAUAUUCGAGUGGUAACAUGAGGAUCACCCAUGUGGAGAGAGGUACAUGAGGAGAAGGCUAGCUGCCUGC [JL-ss2-3.14 JL mod] (puzzle: Same State 2) |  |  |  | 13.4 nM | 22 nM | 27.1 nM |
| AGUCCAGCAUGAGCUGGACAAAAGCAUGUACAUGAGGAUCACCCAUGUCAUGUACAAGCUUUUUGCUCGUCUUAAAA [Mat - hsa-mir-208a - Mod of JL - D1] (puzzle: Sensor for hsa-mir-208a) |  |  |  | 512 nM | 16.7 nM | 627 nM |
| ACAAGCUUUUUGCUCGUCUUCAUGUAAUAACAUGAGGAUCACCCAUGUAACGUUAAAAGUCUCUCGAUAAUAGCUCA [Meechl hsa-mir-208a 1] (puzzle: Sensor for hsa-mir-208a) |  |  |  | 132 nM | 33.6 nM | 348 nM |
| GGAUGAUUAACAGGAUAUCAUUUGUAAAUUCGAUGAGAAGGGUUGAUUACUUACACGACGUGUUACAUGAGGAUCACCCAUGUU [SameState NG1 #6] (Eterna round: R96, puzzle: Same State NG 1) | 372 nM | 385 nM | 548 nM |  |  |  |
| GGAAUAUGAUGUUACAUGAGGAUCACCCAUGUAGUGACAACUAAGGAUAUCUGAAAGGAAGGAGAGGAGAAGGUAGGAUCAUAA [AK SSNG3-V2-14] (Eterna round: R96, puzzle: Same State NG 3) | 20 nM | 24.6 nM | 33.3 nM |  |  |  |
| UUAUAACAUGAGGAUCACCCAUGUCAACAAAGUCGAGGAUAUGGGCAUAGAUUAUAAGAACCAGAAGGCGAAUAUG [Mat - Same State 1 - Mod of UCT - D41] (puzzle: Same State 1) |  |  |  | 140 nM | 11.3 nM | 1.69 nM |
| GGUCGGACUCACAUGAGGAUCACCCAUGUUCCGGAAACGGGAUAGGAUAUCUGUCCGAAAAGGUCAGAGAAGGGUCUACCGACC [Fiskers NG3ss - 55] (Eterna round: R96, puzzle: Same State NG 3) | 1050 nM | 236 nM | 519 nM |  |  |  |
| GGAGCCGGCACCGAGGAUAUUCAUAUUAAAACAUGAGGAUCACCCAUGUAGGUCAAAAGACCUUGGGAGAAGGCGGAUCGGCUCG [Xeonanis - 31] (puzzle: Same State 2) |  |  |  | 32.1 nM | 802 nM | 481 nM |
| UUAAUGAUGAUAGGAUAUACAUGAGGAAUUCUCGUAGAAGGAUCAUGACAUGAGGAUCACCCAUGUAUCGCUCGAAAGAGCGUA [Mat - Same State NG 1 - JL mod - D33] (Eterna round: R96, puzzle: Same State NG 1) | 570 nM | 234 nM | 205 nM |  |  |  |
| UACAAUCUAUCUCAGGAUAUCAUGUCAAAGACAUGAGGAUCACCCAUGUACCAGGAAACUGGUUAUGAGAAGGGAGAUAGAUUGU [Mat - Same State 2 - Mod - D24] (puzzle: Same State 2) |  |  |  | 136 nM | 35.4 nM | 77.9 nM |
